Source: patent publication US20240352102

How the values were obtained:
[1] = tested on: tau isoform 1N4R (4R tau, MAPT) (Homo sapiens), P10636-7; assay: SPR; details: 50 mM HEPES, 25 mM NaCl, 0.1% Tween-20, pH 7.4
[2] = tested on: tau isoform 1N3R (3R tau, MAPT) (Homo sapiens), P10636-4; assay: SPR; details: 50 mM HEPES, 25 mM NaCl, 0.1% Tween-20, pH 7.4; poly(A) length not restated for 3R
tau isoform 1N3R (3R tau, MAPT) (Homo sapiens), P10636-4, sequence (P10636 other isoform, or with tags, fused parts or gaps): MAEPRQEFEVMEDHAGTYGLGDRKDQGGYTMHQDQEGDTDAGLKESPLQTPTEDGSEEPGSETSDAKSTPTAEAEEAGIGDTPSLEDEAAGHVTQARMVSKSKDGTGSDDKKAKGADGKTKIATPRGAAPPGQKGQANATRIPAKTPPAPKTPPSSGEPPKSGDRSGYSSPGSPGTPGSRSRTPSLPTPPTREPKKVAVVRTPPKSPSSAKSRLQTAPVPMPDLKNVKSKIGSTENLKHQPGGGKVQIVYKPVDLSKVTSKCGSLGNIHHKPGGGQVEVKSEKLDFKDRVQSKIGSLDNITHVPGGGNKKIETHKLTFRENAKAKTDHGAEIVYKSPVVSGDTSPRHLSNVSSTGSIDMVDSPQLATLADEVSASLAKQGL

tau isoform 1N4R (4R tau, MAPT) (Homo sapiens), P10636-7, sequence (P10636 other isoform, or with tags, fused parts or gaps): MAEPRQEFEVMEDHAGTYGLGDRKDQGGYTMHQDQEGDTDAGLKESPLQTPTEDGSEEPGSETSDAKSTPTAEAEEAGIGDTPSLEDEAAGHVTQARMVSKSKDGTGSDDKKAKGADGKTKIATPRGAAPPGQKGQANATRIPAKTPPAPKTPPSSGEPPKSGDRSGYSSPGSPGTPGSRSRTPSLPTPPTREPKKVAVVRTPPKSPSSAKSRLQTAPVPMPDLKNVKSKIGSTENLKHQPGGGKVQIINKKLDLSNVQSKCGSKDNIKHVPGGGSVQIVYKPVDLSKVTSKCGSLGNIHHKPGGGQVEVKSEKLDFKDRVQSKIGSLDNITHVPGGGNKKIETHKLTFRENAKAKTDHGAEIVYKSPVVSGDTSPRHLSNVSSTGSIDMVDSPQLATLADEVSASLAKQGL

Substance | Kd [1] [nM] | Kd [2] [nM] | Kd ([1]; streptavidin chip, poly(A)20 length from FIG. 1B trace) [nM]
biotin tRNA-Lys | > 30 |  | 
A [biotin poly(A)20 RNA] |  | 8.3 | 7.2
